Reference: a protein production outcome set (Wang et al. 2014)

Assay: label from the status in PepcDB records

In the case of “MQRRLERFDAKLVQSGLDALLVTGQNNIYYLTDFWGTNATVFITKNRRLFLTDSRYTLIAKQSVHGFDIIESKDPLKDIVKFVEVDKLETIGFDNQVSFAYYQALQAIFEGYTLSPQTNFMEELRMIKDEKELATIRKACSISDRAFTDVLDFIKPGQTTELQVANFLDFRMREYGASGISFESIIASGYRSAMPHGVASDKVIQSGETLTMDFGCYYNHYVSDMTRTIHIGETTDEEREIYDIVLRSNRALIDATKAGMTRRDYDKVARDVIVEAGYGDYFTHGIGHGIGLDIHEIPYFGNSDETIEAGMVLTDEPGIYLADKYGVRIEDDIIITENGCEVITLAPKELIVL”, the protein production is reported as “failed”.

For “MKQKLLYLCLFVTLAVVGHSYIIYRFIHDGVLFTGPNDGMEQMVPIQMYLFDNWHHGNFFYASDFGLGGDFFSDLSYYFSTNIIFIINVIVIVLLKTFITLDTTHIMFWMTNALIVSIFKSAIAMLATYLYVRYIALNKKIAVLAAFIFVISPIYFRFTVYWPFFSDVFIWLPLLLWSIERFLKSGKIGFFIIIVAITLINNFYFAYYQLLTGLIYLTIRLVFRHQADIIPRFKSFMSLFIASVIGLGCSLPFFFPAIQSFFNNRRTPFDGNVDLFEPFNQNTNVFYDNYLIVILFITGQALLSFKLYKHYYFKLFAISTLILICASFVPFIDQIFNGFSAPQKRWHYLIAFNSAVLIGLYVKYFRTISIPNYIFSSVISLSIIGLSAWYYDDVVAWVWFAPIVSLIGFLILLINESHIKLKLTHLFVLSIMILTVLVSTVFIRNQIYFEDHVKRANAYFVNASLFNTPLQQQLVKDMNTHKLEDERIDWRVNEQDNTPMYQQFKGLSIYSSIFDHHILDFYYDELKINMQEESVSRYQSTNGRQNMSSLFSIKYLMVKRYQHNIPAYFKKIKNDGQYEIYENTLNLPSVRVSNKKYNSNDLHNPIDKEHAMMDGVILNNKGASYTAKAPNLLNQTRITYKDIDNKRNHQIHASKNDSHVQIHIPKHLRQRYHDFYLTIKVKRGLPDSNFSVQINNYTNNRLYNNSTYRTGVDTQLYRTQPDKNGNINVGLSPTGNYYLDIQSLHGENYNHLKSAYAKQNNDGHYTDIKNGVKVKLGPHEKGIATINIPYREGMTAYVDNKKIKPLNVNYMMTGVPVSKDSKEIIIKYRPKYWYTVTAISIIFIIGSLSWFMRKRYKNK”, the protein production was “failed”.

With “MLDSAQLIFDLQKVNTTSKRISGCLDTTAITKEITEALIHDFHCVFARIWLTEPDGASLKLVASSGLHTSTNGSFARVPMGAYKVGKIAQSCIPFLSNHLANETWVKDRDWAIANNIRGFAGYPLVGHDRVIGVLAVFSEAPFVAEFLEVLQVLCMAVAIAIDAVRQLQSETNTINTTQFLDDQIP” the protein production was “failed”.

For “MSEKLQKVLARAGHGSRREIESIIEAGRVSVDGKIAKLGDRVEVTPGLKIRIDGHLISVRESAEQICRVLAYYKPEGELCTRNDPEGRPTVFDRLPKLRGARWIAVGRLDVNTCGLLLFTTDGELANRLMHPSREVEREYAVRVFGQVDDAKLRDLSRGVQLEDGPAAFKTIKFSGGEGINQWYNVTLTEGRNREVRRLWEAVGVQVSRLIRVRYGDIPLPKGLPRGGWTELDLAQTNYLRELVELPPETSSKVAVEKDRRRMKANQIRRAVKRHSQVSGGRRSGGRNNNG”, the protein production was “not failed”.

For “MDRFENMNAFVRVVETGSISAAADRMDIAKSVVSRRLKELEEHLGVELFHRTTRQMNLTDSGRAFYQQSVRILADVLEAEHATSQFHGRLKGHLKVAVPLSFGLMHLGAAISTFLQTHPDIEFDLDFNDRQVDLLAEGFDLAIRIANLPDSSLIARRLAPIQAVMCASPAYLERMGTPQAPEELIRHRCLVYNLVSHSDNWNVYGTTGELIKTRIIPYLKASNGEFLRDAAVDGLGIVLLPTFIVYREIQRGALIPILTGYHYAQLAAYAIYPQTRHLSQRVRAFVDFLSQRFEGMPYWDACLNQ”, the protein production was “failed”.

In the case of “MFSSSYSNLPPLPHRLFLLLTVIWAGSLWTIGYLVAPTLFSVLPSRETAGMIAGHLFRYEAILGMTVGVLQLVLCNVLIRRGAERYRSLRWIVLTMLVCVLAGYFGVQPFMEGLKVKAQALNLGVSESPYKAEFGMLHGVSSVIYLVQSVLALVLVWRASAPR”, the protein production is reported as “failed”.

For “MSYIPPHKRHSKDPTKPTPVPDSLVTKFKKNLDFKSSTSSVKRNKIIYSGDSISKWFLVGSNGIEDDVPSYVKFVPLSSDSVECRKGEKPSILMNNNVQNVNMNIGERKDERTQWLLVAEKVMEDLVLAYERVKTEMKEHHHVSRLVARFGKIFFYGSQAGPVAECSLKNLNKMFSTDLPMSYLQHIKSNVVPSHGFSIDKEKETYTVKVSHYSRPNATINCKCTRKEDGRLSMYKASLEFYVDLNPVRHLVVDVSCIDKNLDMRLTLTAKREITYLSDKEIGDIKALLESATVDPNVKGGLRWPFGKALSEDGYKEFEVCHVRATIYKNKTLRLRVRETDRFNETTGTGETKREVSLTLKDIDTKIQEQNTERGCVLEMLRDALGTIWDFLHCDAYLT”, the protein production was “not failed”.

With “NVRVITDENWRELLEGDWMIEFYAPWCPACQNLQPEWESFAEWGEDLEVNIAKVDVTEQPGLSGRFIINALPTIYHCKDGEFRRYQGPRTKKDFINFISDKEWKSIEPVSSWF” the protein production was “not failed”.

With “MNSPANITDPLVLFMPSGKRGRFPVGTPVLDAARQLGVYVESVCGGRATCGRCQIEVQEGNFAKHKIVSSNDHISPKGPKEERYERVRGLPERRRLSCSAQILGDLVIDVPQDTVINAQTIRKDADTRVIARDTAIRMCYVEIEEPDMHKPLGDLDRLKIALMKDWGFKNLEFDFYLLPQVQGILRKGNWTATAAIHKDADSDIARVIALWPGLKNEAYGLACDIGSTTIAMHLVSLLSGRVAASSGTSNPQIRFGEDLMSRVSYVMMNPDGREGMTVAVREAISSLVDKVCAEGNVQRNDILDSVFVGNPIMHHLFLGIDPTELGGAPFALAVSGAVRIKASDIGLKLNQGARLYMLPCIAGHVGADAAAVTLSEGPHRQDEMMLIVDVGTNAEIVLGNRARVVAASSPTGPAFEGAEISGGQRAAPGAIERVRIDPDTLEPKYRVIGSELWSDEPGFLDSVQATGVTGICGSGIIEIVAEMYLAGIISEDGVVDGSLAARSPRVTANGRTFSYVLKEGEPKITITQTDVRAIQLAKAALYAGTKLLMEKQNTEHVDRIHFAGAFGSFIDPKYAMVLGLIPDCDLDKVSAVGNAAGAGARMALLNRGYRREIEETVSQIEKIETALEPKFQEHFVYAMALPNKVDPFPKLSAAVKLPPRKTVSEDGIAGDATPRRRSREGHAARRSRE” the protein production was “failed”.

For “MQDLGIAFQTAVGDSGGNLDGRTPLPSNDWLMKRNCSLTPRQAGWFYFSIVCFSTAIAVFFAVWLGAWLVLPFAGLELLGLGIALLAYARHAADYERVSVTDGMLVVETASASRITREVFNPRWVRVELGESFRAPVVLRSDKRSVQVGLYLDPYRRRKFAQELAVALQRV”, the protein production was “failed”.

In the case of “MLKILVRLYLVIIVAYAGALLFIPDTIVGLFRDRFMAYNLDQAKGVQALIVRQFRQAPREQWPAVEQELASDFAPLELQLLRRDQAGLSDEEQARLEQGLYAVRIAEWGYYETVLAPLDKEWLIRLHSPPDPLDINVLSWGVTVLIGAAMLGCLLLWVWPHWRDLERLKETARRLGQGQMAERTHISPHSNIGELAGVFDTMASDLERHVNQQRELLNAVSHELRTPLTRLDFGLVLLFDEVPPASRKRLLELVGHVRELDELVLELLSYSRLYNADQARERVEVSLLELVDSVLGGFAEELDGRGIQWEVRAEGELPRFVLDPRLTARAVQNLVRNAMRYCDESLLLRLRLEADGACLLTVEDDGIGVPVEERERVFQPFYRLDRSRDRNTGGFGLGLAISRRAIEGQGGTLTLAQSALGGAQFRIRLPAGG”, the protein production is reported as “failed”.

With “MLSKIVDINAARQNIDMKVKLLSLNKRTIKNDRGETVYYYGIIGDETGTVPFTAWTFPPAVRVGDVIEIRSCYSNIYNGKIRIYIDGRSEVILKPDVEMEVKRSSDLVKIRDVSLSTPYVSVIGKITGIHKKEYESDGTTKSVYQGYIEDDTARIRISSFGKQLQDSDVVRIDNARVAQFNGYLSLSVGDSSRIESVNVNIPEKPRHIFISEIRSPVGGITIVGFVVSVGQGSRIFTKCSVCRRIVEDGTCKDHPKAPVYPDIFGYFSISDGTGTITCYINSDSFLPYAGISQDQFRRDAYSMNPNSLIKKNLLGKCISVSGDLRSQDDRIVMNVQSMKAISAEDNREIESIIEEEFQ” the protein production was “failed”.

For “MIFALHIMLRFVPNIVPLSIINKKTMTRIGLLSDTHAFWDDKYLKYFENCDEIWHAGDIGSVEVARKLSAFRPFRAVYGNIDGQDIRRLYPQTNRFTVDGAEVLIKHIGGYPGNYDPSIRGSLLVKPPQLFISGHSHILKVKYDKTLDMLHINPGAAGISGFHKVRTLVRFCIDNGEFKDLEVIELADKL”, the protein production was “failed”.
